According to the NTF2 design screens of Basanta et al. (2020):

experiment: protease stability score; higher = more stable; yeast display proteolysis, trypsin and chymotrypsin;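 also: log10 excess protease needed over predicted unfolded state with 0 meaning unfolded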

| Sequence | protease stability score |
| --- | --- |
| DEELRRRLEKFFRDLRNGNESEAVKLVDPNARFNIGDTEYHGMHDYARELLRQRHKLNWHVRQVTIEAKNGHVNITMSVQFNVNGRPDSYTNTVRAVLHNGRVKEMSNRVPKDQLHKIKK | 0.209 |
| DEELSKRAKHLIEMMKTGDEKEIQKQMDKDVKIDIGDKTIKGREDAAEQWRNRVEKIRWSLTIRHVNVQGNHVTMNVEVHLNVNGQPNRYTIEISFTFHNGKIVYISVSFDEDTEEKAKK | 1.18 |
| DEELTKRAQKQINVLRTGDEKKVLELMDPNAKLSVGEKEYHGMEDIAKTLAQENRQMRIDVKDMKFTSKGDTVDVTLSYVVDHNGQPDEQVVRVHIVAHNGKIKSQEVRRDS | -0.762 |
| DEELVDQVKSFIELLQKGNEDELMKQLDEDAKIHYGDKTIHGREQVREWVKRFKDEMRQKIDSVQFREKPNRVSMKADMSYTQNGTPHDQQIDATFRAHNGRIKQVNIQLTK | -0.084 |
| DEELVEQLKKMYENEKNGDPDKVHEQFDKDARIDIGEKQVRGRDQASREAERERKQINVEIKHVDIKAHNGRATIDMVIVFNINGQPHRRRVTVYAVLHNGKIKSMSRHMDPSEQDQLTQ | 0.343 |
| DEELVKRAEDMIKAIQRGDEDRINQMVDPNADVRVGDQRYDGMHEYVTRLKSRQKRMRRSVSVESVTAKNGQVRIDAKMTRNDNGRPERFKHIIIIKAENGEIQVIHVHKSQ | -0.078 |
| DEELVKRLKKLLEALESGDEEKVHHMFDPNVRFQVGDKRFHGRERYASTVKREKDEMRNEVTSYRLTATGDKAEMSFRNILDENGSPHDDIQVMHVHVQGDKIKRASIQETR | 0.071 |
| DEELYKLMEQVIKAWEENDETQLKRLADPNVKVSIGDKRVHGRDQMAEDAKRRKKQLRFNIDIKSYSVHNGRVNARATVHNDVNGQPREDTVNIQMEWSNGQLTNFNMRMDEDFLRKIRS | 0.752 |
| DEEMEKRWEEWLDAVTTGDESRVREYMDPNVRYNYGDKHYTGREEIAHDTVREVKRIRIEIKTMSNDDQGEHVRVRFNRVKNDNGEPKEEVLVVEFTQENGRITEATQHEDR | -0.004 |
| DEEMLEVVKQLLHAYQNGDEEKVKRLLDPNARVQVGDQVVHGRESYANEVRKERDEIRFDVKITSVKVHNGKIDIKADVHVNINGKPVKFDVIIEYKMEGDKIKQINVQMDPSQWKERES | 0.913 |
| DEEMNKRAKRLVDVLRTGDFREFLEMVDPNARVQIGDKSWHGMEDYVHDLKEKRDQIKMHYEVKHMTAHDGRAHLEIDAEANVNGQPLSFSFTLHLQFQNGRVTHAEYQLDEDRLRKLEQ | 0.911 |
| DEENADVIRRFLDAIHTGNPDDARKNADPNAQYKIGDKTYSGMERWVKTLQDQKRHQEIDIKIKHISVKGDKITVEFVVVVNINGRPVSFSAILSAEVKNGKIKHLQYHISEEQKRKVEG | 0.222 |
| DEENAERLKKIFRAVQENDSKQIERNFDPNAEVTYGDKTVTGREEQSREYHKILHEIRVRIQIKHVKVHNGRLSIHAKMDREHNGEPDDATLIVEAHFHNGKATEQQNDVHK | 0.44 |
| DEENAHEAVRIWETGDPQENADLVDPNVHARYGDKKIRGREDMEEFWRRMHHQIDHKDVRDIQVSGNHIEIDMEINVDGVRARYVARYHMDNGKIKSANAEFRDPDEKQDIRRALD | 0.275 |
| DEENAKIIENLIRANETNDPDRAVQLADENVDFRIGDRTYRGMDEYATQMAHEFKEIEMRIHLKTFDTQGEKVRLEADVKRTHNGKPESFRAVMVANASNGRVVEIDVQMDK | 0.974 |
| DEENAKTLKQQMNQYQSGDEEEVQENVDKDAKFVIGDKRIHGREKYREQVRRELEDIRIDVKIKHLNDKGEKVQVHARLERNHNGRPTDATVDVVVRWHNGRAKEAQFHTDG | -0.11 |
| DEENEDIFRKYLEDLKKGDPKKLKEQFDKDAEVKVGDDVLHGRRSIARTLHEERKEMRVEIEDVKVRAHNGQLEVRFQQTVDHNGRPKTVRARMEVKFHNGRIKHLSVDERE | -0.331 |
| DEENEDLLRKFVEALERNDEDKIMEQADPNAELRYGDKHIHGREKMRELVQNREKELRLDVKDFEVDVNNGHARITVENVQETNGRPTTTRYRIDASIHNGRLQKVNITSDK | 0.287 |
| DEENEKFARRYLEALKHNNPHEMQNMIDPNATLNVGDTRIDGDDQAKKFWSKKLQEISISIRKVSVEVSGNRIDIDAEYELEHNGKPDVNRRTVHLNVKNGKITDLKVRHDK | -0.063 |
| DEENEQLFNEFLKAMEHGDPNRLNQLMDPDVHIRVGDKQIHGREEAAREIVRQMKEQNRHIDSIEVSAENGELTVNVEMFQTHDGKPKKYTYRAKIVFENGKIKHIDRKHSQ | 0.884 |
| DEENHRRATELLRAWKTGDEEELKRQMPPDVHIRVGDQEVHGREQAVKHLAQRRREASFRFKIKEYELQGEKIRIVARAEVHHNGEPQRYVVRLVILYRNGQAEEINQQEDG | 1.25 |
| DEENHTLAKMWFHAYNKGDEDQVRRMADPNVKIQIGDKVIHGRNDEVRWLKERRDHQRSDIKLDHVSASNGRVQIHFTFTVQHNGKPNTSKQQLSMVFQGDKLKSLHMRTDG | -0.112 |
| DEENIEQLRRMMTNLNTGDFHKMVNLMDPNARVRYGDRQISGREEVRKEWEKIVKSMHIERQVRSIEDHDGRAYADVELRVNVDGRPFSVRFTVVVEVRNGRVKFLEVRVPEEFMEKLDS | 1.07 |
| DEENIRVYQEMLEAIKEGDQKRVQELVDPNVEAVYGESQVHGREDIARDLRRVREESRRDVTTYKVTDTNGQITINVDFFQTHDGRPTRKEASVHVQITNGKVKFVEMRDDQ | 0.248 |
| DEENKHAAERLMRAIQKGDPDDMVRNMDKDAKVNIGDQQFHGREEVAKQNRKDNKEMRYHQEVKSISVDGDKVTVEATAQFTYNGQPDTFKFSFRAHLHNGRIRHLDVHFDEQTKRDQES | 0.101 |

| Sequence | protease stability score |
| --- | --- |
| DEENKKQAERLYTALEKNNPEELKKLADPNARVEVGDTTYHGMRKFLRDLAQTLKELRVEVIEIEIDVQGNQVTAHVHVRVEKNGQPDEFVLIFHFELSNGRIKRVRVERHQ | 1.12 |
| DEENKKRFDKFQEVQKQGDPKQLQSLMDPNVEWRVGDKNYHGRQEIAKDRIRVQREIRIEFNITHYENHNGRVKIHAEAKAKVNGRPQTYDYSFEVVVHNGKIKELNWRVDPEEVDRIES | 0.67 |
| DEENLDAARRLIDALKNNDPDHAMENADKDVRVHIGDWHVHGREDMSRLIKELVDEMRVDVKDVKTRKDGETAVITIDAVFHVNGEPKRDTFTMNVKAHNGHVQRIHARVSEEDVRKLKQ | -0.086 |
| DEENLEIAKDLIRAQETGDEERIQNLLDPNVKIDVGDKSIHGREHLRKTQQEQKRNMRFDVDSVENKVHNGQVRVDAHVRERHNGQPTTKRYTLHMHFHNGKVERIRLQDKG | 0.318 |
| DEENLHRRAEQFVKALEHGDQHQFRRMFDENARVEVGDKFFHGREEVARFMRDLTRRIDHVQFRRMEVRGEKIIVKAEAHVNGKRVTIIFDLTVKNGRIKHVRITFTDEKDRREFER | 1.12 |
| DEENLKKVREFLEHLVTGNEREVKHLMDPNAEMEVGDKKYSGTEQLRRLMQELKRHQTNKYDIKDMKVQGNKADLKAKVIERHNGQPDDTEQQFFATMSNGRFKKVSFRTDK | -0.295 |
| DEENLNQLKKFWHALQTNNPDQARKLADPNVRLHVGDKSVNGREEMVKRLVDKMHEMEIDYKVRDMHAHNGHIKVEAERVIHDNGQPRRATYEIRVIIKNGRIKEIQIHERQ | 1.07 |
| DEENLNRLDEFQQAVQTGDEKEAEELVDPNARVNVGDKQVNGMDKLRRTIHNKRRKMRVEIDHVNFRAKGNHVTARFDFHVNHNGTPRRTQMNVEARFKNGRIKSLRNESVS | 0.121 |
| DEENLQKIAHKVVRALHDGDPHQMHDLFDKDARISYGDKSVHGRNEISKAAHEREERVDDIDFKSFSVKNGHVEVDAKYDHNGQRREVIVQVEMHNGRIKSARFTKK | 0.2 |
| DEENLRTLAQEVKDILQTGDEEKLKEMLDKDVRLEVGDHVYEGSENAAKAANHWKERADHIQVDSIEIHGNELRIDVRVNVNGKNIDIDIVVTFSNGRIREMKFQYRDEDEKRQLER | 0.809 |
| DEENLRVVVHLMKAVETGDPTKARRNLDKDVHFNVGNRRIHGREQFQKELDDEKKDISINVKDYRVRDKNGKAHFTVRFVLEVNGRPMEMKITMQAEAHNGRIKHVQQQVSEEDEKRINK | -0.094 |
| DEENMEVLEKVLDAMRTGDKKKVRDNLDKDARIEIGDHVLNGREEFAKWVVQIKKEIKVQINIQSVDVSNGRVRVHAQVEFRVNGQPQQYTIHIVAEIHNGHIKTLRMSFDDDQQRKFES | 0.924 |
| DEENMEVYQTQLKVEQRGNEEELVKLIDPNAEVRIGDKQVKGRENIAHTIKQETDKMERKIESLNLSAHNGEIHIKATVVQTHNGEPRTDSYVMRIHLHNGRLKQMDVHKSN | 0.541 |
| DEENMHKLQEIIRTNDETKFNEMMDPNVEIEVGNKTYHGREEAIKFQRRVNQHVDKIQVDYVEVQGDSLRADYVVQVNGQNVRVDLEIRVEDGRAKEIRLNFRNEEEHKMYEKWLS | 1.34 |
| DEENQKIFDEYVKALRTNNPERLNEMLDPNARVQVGDKEVHGMDDLSRTVNQMIDNLHLNLKIESVHVRGNTLSVDAEYVLNVNGKPQRRSVEIEIHAHNGTVKFLRMRVDPREEQKIKS | 0.363 |
| DEENQKQIKKIWHAWEKGDEQKAQDMVDPNVNIQVGDKHISGQDSLREDLRRKRHEMRVRVRFHDINIDENHISVKIEVLNEKNGRPSTKVVVFEATVHNGKIKSMEFRDDD | 0.494 |
| DEENQQDYARKMNEMIVQNDPDEALRLFDPNVKVDIGDTRIDGRHDLERWVEDLKKQVDHVQLHDVKFRGDHASIHIEMTVNGRTISQIYHIVFHNGKAKEMKVETK | 0.567 |
| DEENQRLAEEFIRAFEKGNPDQAATMADPNVKIDIGEKRIHGHEELKKWIEELQRQMRVEVEHYEVEADGDKVIARLIFRQEHNGKPQEDKEQVNIRFHNGRAKSVTIRSTK | 0.028 |
| DEENREVAERWLDALKRGDPKKANEQMDPNARLRVGNKTVHGREDFEQMIRKWQEHMSFSVETMTVQVEGNKIIIKATREVVVNGRPHKDTFEFEIEIQNGKIKEITIHFPEQELKEIED | 0.815 |
| DEENREVMERFVQAFNRNNPDQLNTNADPNAKFVIGDKTINGRERMKKWQEEQNTHMRQHLEVTSISVHGNSITARVRMQFQVNGQPQEVDLTLHATIHNGQIKQLTFNLDKDEKKQIDK | -0.133 |
| DEENRHAAEQYLTALRTGDEEQLKKNADPNVRVQVGDKQWTGMERYAHDQVRQLKEIHIEIKVDDIKVSNGEVDMKAERNSNHNGKPSRNRASLTIVVHNGKIQEIHWQEDS | -0.47 |
| DEENRHQINEMWKQIQTNNPDEVMKQLDKDVQVVVGDKQIRGREEFAKHVEQLLREMDVEYHSIKVKVHNGEAHVKVRHTVDVNGKPREDTLDVQLQMKNGHVKHFELRIDEDKLEKLKR | -0.169 |
| DEENRHVAQELVKAEKSGDPKRAQELLDPNVRINVGDKTVQGREQHTQELEREKRELRIRIKSMHLKVEGDHVRIEATVSKTQDGQPRESKRSISIHMKNGKAKNIQVTYHK | 0.13 |
| DEENRKDAEKYMKVTENNNPDEVSKLVDPNAKLEIGDKTYHGDEWMMDQQQQDRDQARIEVKRVDIKVHNGQINARVRFVKEENGKPDRRDVDIKMNIHNGRLKRAQFKHTE | 0.064 |
| DEENRKIAKKLVEAMHTNDEETLEKMFDPNVRFDVGDREVHGKEQWKREQHKKNREARFEIQRYTISYEGDKAVVRIHQVEDHNGQPREDTYVMHVEVHNGKVKRVVQRKDS | -0.129 |
